Measurements: US20100104554

What was measured:
[1] = molecular target: T1, recombinant human cathepsin S propeptide (residues 17-113) with N-terminal hexahistidine tag, expressed from pQE30
T1 chain: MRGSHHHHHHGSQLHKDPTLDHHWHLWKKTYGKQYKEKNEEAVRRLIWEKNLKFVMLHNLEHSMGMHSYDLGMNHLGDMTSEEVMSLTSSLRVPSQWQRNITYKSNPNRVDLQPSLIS

[2] = molecular target: Fc-control protein

B1: human cathepsin S (Calbiochem) (protein)
chain: LPDSVDWREKGCVTEVKYQGSCGACWAFSAVGALEAQLKLKTGKLVSLSAQNLVDCSTEKYGNKGCNGGFMTTAFQYIIDNKGIDSDASYPYKAMDLKCQYDSKYRAATCSKYTELPYGREDVLKEAVANKGPVSVGVDARHPSFFLYRSGVYYEPSCTQNVNHGVLVVGYGDLNGKEYWLVKNSWGHNFGEEGYIRMARNKGNHCGIASFPSYPEI
In the case of B1, the “elastinolytic turnover of Elastin-DQ by CatS over a 60 minute incubation” value [1] is reported as “the inventors were able to demonstrate inhibition of this activity”, the “hydrolysis of Cbz-Val-Val-Arg-AMC by CatS (fluorometric assay), rCatSPP 0 nM to 500 nM” value [1] is reported as “the dose-dependent inhibition of CatS activity was observed” and the “hydrolysis of Z-VVR-AMC by CatS (fluorometric assay)” value [2] is reported as “The Fc-control protein (200 nM) had no discernable effects on CatS activity”.
